What was measured:
Details in all cases: 50 °C, 50 mM sodium phosphate pH 7.4 (also Tris-HCl pH 8.5), 5 μM enzyme, 1-20 mM substrate
[1] = test system: T1, EstA3_Bb (naturally shorter B. brevis esterase); experiment: p-nitrophenol release at […] nm, Lineweaver-Burk; type: biochemical, Brevibacillus brevis
T1 construct: gene EstA3.bb; full-length natural enzyme lacking the C-terminal tail, 6xHis-tag (pET28a, plasmid pFEM170), codon-optimised synthetic gene, E. coli BL21(DE3) pLysS, Ni-NTA; calculated mass 35,243

purified protein [2] = substrate: CCCCCCCC(=O)Oc1ccc([N+](=O)[O-])cc1; experiment: purified protein; type: biochemical, Caldanaerobacter subterraneus
purified protein [3] = substrate: CCCC(=O)Oc1ccc([N+](=O)[O-])cc1; experiment: purified protein; type: biochemical, Caldanaerobacter subterraneus

With `CCCC(=O)Oc1ccc([N+](=O)[O-])cc1` [pNPC4, p-nitrophenyl butyrate] the Km ([1]; table value, text b31 prints 0.53 mM) was 590 µM.

Molecule `CCCCCCCC(=O)Oc1ccc([N+](=O)[O-])cc1` [pNPC8, p-nitrophenyl caprylate] has a Km [1] of 510 µM.

B1: EstA3_TtΔ (truncated T. tengcongensis esterase) (Caldanaerobacter subterraneus subsp. tengcongensis MB4) (protein)
chain: MNNPVVFLHGIFGSIFTPTPLGKIWSFGPAANIYAPFIEDLQKIGLVENKNLFVCYYEWWRKIPDAVDKLILAIEEAKAKTGSSKVDLVCHSMGGLLARSYLQSDKYQFDVDKLILLGTPNLGAANAYYGWEGGTVPPDDEDFVNMLFRGFLWIFSKIKGEKDAVTVIRKYIPSIKDLMPSKEYGSYLFMYPVRYEKILFKNIEYMKVINDFLNDLNEKADILYERVRSVYLFAGEGVYTNKFIQVEKSESEVVWPDGKPVGVIRDDKGDGTVLTKSALGINGEEIVLKSSHIGILKDSVSYLGEILG
notes: catalytic domain; 6xHis-tag (pET28a, plasmid pFEM103), E. coli BL21(DE3) pLysS, Ni-NTA; calculated mass 34,719
Work on B1 yielded a Km (purified protein [2]) of 560 µM and a Km (purified protein [3]) of 640 µM.

B2: EstA3_Tt (wild-type T. tengcongensis esterase EstA3, LipA3) (Caldanaerobacter subterraneus subsp. tengcongensis MB4) (protein)
chain: MNNPVVFLHGIFGSIFTPTPLGKIWSFGPAANIYAPFIEDLQKIGLVENKNLFVCYYEWWRKIPDAVDKLILAIEEAKAKTGSSKVDLVCHSMGGLLARSYLQSDKYQFDVDKLILLGTPNLGAANAYYGWEGGTVPPDDEDFVNMLFRGFLWIFSKIKGEKDAVTVIRKYIPSIKDLMPSKEYGSYLFMYPVRYEKILFKNIEYMKVINDFLNDLNEKADILYERVRSVYLFAGEGVYTNKFIQVEKSESEVVWPDGKPVGVIRDDKGDGTVLTKSALGINGEEIVLKSSHIGILKDSVSYLGEILGIREKPSISLLEKAISYLSIITDKKIVVLDRSKKIKTYDVFGKYNWHVCFEPEGVYKISIKEPGMSEFYIETNKKTVEKKFKSSRLSRGAEFTLEVDEEGNFKMRDG
notes: full length, 6xHis-tag (pET28a, plasmid pFEM45), codon-optimised synthetic gene, E. coli BL21(DE3) pLysS, Ni-NTA; calculated mass 47,078
Work on B2 yielded a Km (purified protein [2]; listed as label shifted in table, assigned by text b31) of 490 µM and a Km (purified protein [3]) of 530 µM.
